How the values were obtained:
TbDHSc-TbDHSp = target: T1, TbDHSc-TbDHSp (Trypanosoma brucei, UniProt Q38BX0+Q4GZD1); assay: [3H]spermidine incorporation into eIF5A, nitrocellulose filter binding assay; type: biochemical
T1 construct: gene DHSc; His6-SUMO-TbDHSc co-expressed with tagless TbDHSp in E. coli; SUMO tag cut with Ulp1, tag-free; 50 kDa + 37 kDa; 2:2 heterotetramer, 175 kDa
T1 sequence (Q38BX0 1-461): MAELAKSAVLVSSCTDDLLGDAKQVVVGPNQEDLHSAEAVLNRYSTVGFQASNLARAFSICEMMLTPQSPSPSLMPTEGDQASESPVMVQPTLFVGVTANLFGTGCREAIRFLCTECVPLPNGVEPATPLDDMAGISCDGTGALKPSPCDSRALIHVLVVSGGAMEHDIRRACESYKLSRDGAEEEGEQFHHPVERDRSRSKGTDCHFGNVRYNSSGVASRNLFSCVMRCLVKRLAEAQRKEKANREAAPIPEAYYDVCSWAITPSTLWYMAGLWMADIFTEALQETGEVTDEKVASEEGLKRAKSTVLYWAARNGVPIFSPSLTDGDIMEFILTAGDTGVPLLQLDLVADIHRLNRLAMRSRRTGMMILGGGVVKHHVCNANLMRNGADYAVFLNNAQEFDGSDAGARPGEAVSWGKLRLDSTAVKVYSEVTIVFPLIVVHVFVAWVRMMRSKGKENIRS
T1 sequence (Q4GZD1 1-342): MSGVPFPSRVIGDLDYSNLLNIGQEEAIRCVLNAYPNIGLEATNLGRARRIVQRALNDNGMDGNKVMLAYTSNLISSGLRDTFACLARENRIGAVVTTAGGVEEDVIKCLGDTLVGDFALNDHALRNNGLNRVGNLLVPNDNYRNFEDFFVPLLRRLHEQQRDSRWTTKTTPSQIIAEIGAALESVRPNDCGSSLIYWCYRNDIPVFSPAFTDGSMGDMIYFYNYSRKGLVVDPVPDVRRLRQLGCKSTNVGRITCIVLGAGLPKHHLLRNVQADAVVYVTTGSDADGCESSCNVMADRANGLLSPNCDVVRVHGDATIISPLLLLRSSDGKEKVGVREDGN
From the text: [3H]spermidine incorporation into eIF5A, nitrocellulose filter binding assay on TbDHSc-TbDHSp | GC7 inhibited the activity of TbDHSc-TbDBHSp and the growth of BSF cells at similar concentrations

[1] = substrate: NC(=O)c1ccc[n+]([C@@H]2O[C@H](COP(=O)(O)OP(=O)(O)OC[C@H]3O[C@@H](n4cnc5c(N)ncnc54)[C@H](O)[C@@H]3O)[C@@H](O)[C@H]2O)c1; assay: as above; type: biochemical, Trypanosoma brucei; conditions: 100 μM TbeIF5A, 100 μM spermidine, pH 9.3 glycine-NaOH, 37 °C, 1 mM DTT, varied: cofactor
From the text: (§1) [3H]spermidine incorporation into eIF5A, nitrocellulose filter binding assay on TbDHSc-TbDHSp

[2] = substrate: NCCCCNCCCN; assay: as above; type: biochemical, Trypanosoma brucei; conditions: 1 mM NAD+, 100 μM TbeIF5A, pH 9.3 glycine-NaOH, 37 °C, 1 mM DTT, labelled compound
From the text: as §1

[3] = target: T2, TbDHSc (T. brucei deoxyhypusine synthase, catalytic subunit), recombinant, expressed as His6-SUMO-TbDHSc (T. brucei, UniProt Q38BX0 1-461); assay: AUC; sedimentation velocity of the purified TbDHSc-TbDHSp complex at A280 0.7, 0.2 and 0.05 in 50 mM Hepes, 150 mM NaCl, pH 8.0; 20 °C, 40,000 rpm; interference data analysed with SEDFIT c(s); conditions: both partners purified
T2 construct: T. brucei deoxyhypusine synthase catalytic subunit (TbDHSc), TriTrypDB Tb927.10.2750; open reading frame cloned into pE-SUMO Kan; 50 kDa on SDS-PAGE; it was removed with Ulp1 before gel filtration and sedimentation velocity; not shown: His6-SUMO, N-terminal, cleaved
T2 sequence (looked up): T1 sequence (Q38BX0 1-461)

Question: For `N=C(N)NCCCCCCCN` [GC7], which IC50 (TbDHSc-TbDHSp) is on record?
Answer: The IC50 was 1500 ± 150 nM.

B1: TbDHSc-TbDHSp (Trypanosoma brucei brucei TREU927) (protein)
chain 1: T1 sequence (Q38BX0 1-461)
chain 2: T1 sequence (Q4GZD1 1-342)
notes: His6-SUMO-TbDHSc co-expressed with tagless TbDHSp in E. coli; SUMO tag cut with Ulp1, tag-free; 50 kDa + 37 kDa; 2:2 heterotetramer, 175 kDa
Question: For B1, which Km [1] is on record?
Answer: The Km was 82 ± 16 µM.

Question: What about the kcat [1] of the same molecule?
Answer: Its kcat is 0.018 ± 0.001 s⁻¹.

Question: And the Km [2]?
Answer: The Km was 43 ± 5 µM.

Question: And the kcat [2]?
Answer: Its kcat is 0.015 ± 0.001 s⁻¹.

B2: TbDHSp (T. brucei deoxyhypusine synthase prozyme (activating) subunit), recombinant, untagged (natural protein, UniProt Q4GZD1 1-342, looked up)
chain: T1 sequence (Q4GZD1 1-342)
notes: T. brucei deoxyhypusine synthase prozyme subunit (TbDHSp), catalytically dead paralog, TriTrypDB Tb927.1.870; open reading frame cloned untagged into the HindIII-KpnI site of pT7-FLAG-MAT-Tag-2 with a stop codon inserted; 37 kDa on SDS-PAGE; the vector's C-terminal tag was removed by insertion of a stop codon; also called tagless TbDHSp; untagged TbDHSp
Question: How did the “stoichiometry N” value [3] turn out when B2 was run?
Answer: The value was 1 TbDHSp per TbDHSc (2:2 heterotetramer).
